This is an account of results in patent US20240400703A1.

Assay [1] concerns the target recombinant human OX40 fused to a His-tag (Acro Biosystems, cat. no. OX0-H5224) (human) (UniProt P43489). Nature of the assay: BLI cross-block; first Ab (competitor): IgG1-CD134-003-HC6LC2-RR.
The target is the same in assay [2]. Nature of the assay: BLI cross-block; first Ab (competitor): IgG1-CD134-007.
The target is the same in assay [3]. Kind of assay: BLI cross-block; first Ab (competitor): IgG1-CD134-A4453.
The target is the same in assay [4]. Kind of assay: BLI cross-block; first Ab (competitor): IgG1-CD134-012.
For assay [5] the target is unchanged. Nature of the assay: BLI cross-block; first Ab (competitor): IgG1-CD134-Hu106.
For assay [6] the target is unchanged. Nature of the assay: BLI cross-block; first Ab (competitor): IgG1-CD134-ABBV368.
The target is the same in assay [7]. Nature of the assay: BLI cross-block; first Ab (competitor): IgG1-CD134-h3C8.
Assay [8] shares this target. Kind of assay: BLI cross-block; first Ab (competitor): IgG1-CD134-INCAGN1949.
For assay [9] the target is unchanged. Nature of the assay: BLI cross-block; first Ab (competitor): IgG1-CD134-MEDI0562.
Assay [10] has the same target. Kind of assay: BLI cross-block; first Ab (competitor): IgG1-CD134-11D4.
For assay [11] the target is unchanged. Nature of the assay: BLI cross-block; first Ab (competitor): IgG1-CD134-003.
For assay [12] the target is unchanged. Kind of assay: BLI cross-block; first Ab (competitor): IgG1-CD134-RG7888.
The target is the same in assay [13]. Kind of assay: BLI cross-block; first Ab (competitor): IgG1-CD134-GBR830.
Assay [14] has the same target. Nature of the assay: BLI cross-block; first Ab (competitor): IgG1-CD134-SF2.
For assay [15] the target is unchanged. Nature of the assay: BLI cross-block; first Ab (competitor): IgG1-CD134-49B4-RRE.
Assay [16] has the same target. Nature of the assay: BLI cross-block; first Ab (competitor): IgG1-CD134-IBI101.

Numbering of substitutions follows the chain as printed.

Sequence of recombinant human OX40 fused to a His-tag (Acro Biosystems, cat. no. OX0-H5224) (human) (P43489 29-214 limits assumed): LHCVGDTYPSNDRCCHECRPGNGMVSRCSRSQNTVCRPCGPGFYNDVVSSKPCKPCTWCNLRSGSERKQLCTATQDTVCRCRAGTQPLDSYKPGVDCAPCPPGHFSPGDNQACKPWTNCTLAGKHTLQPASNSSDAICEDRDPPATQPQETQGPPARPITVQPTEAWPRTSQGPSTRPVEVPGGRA

B1: IgG1-CD134-ABBV368 (antibody, INN chains, looked up, V domains shown)
VH: EVQLVESGGGLVQPGGSLRLSCAASGFTFSRYGMSWVRQAPGKGLELVATINSNGGRTYYPDSVKGRFTISRDNAKNSLYLQMNSLRAEDTAVYYCAREGITTAYAMDYWGQGTTVTVSS
VL: DIVMTQSPDSLAVSLGERATINCKASQSVDYDGDSYMHWYQQKPGQPPKLLIYAASILESGVPDRFSGSGSGTDFTLTISSLQAEDVAVYYCQQSNEDPRTFGGGTKVEIK
modifications: IgG1
For the molecule B1, the association response in assay [1] was 1.68 nm; in assay [2] it was 0 nm; in assay [3] it was 0.29 nm; in assay [4], 0.87 nm; in assay [5], 0 nm; in assay [6] it was -0.04 nm. For the same molecule, the association response in assay [7] was -0.03 nm; in [8] it was 0.01 nm; in assay [9], -0.01 nm; in [10], 0.13 nm; in [11], 1.27 nm; in [12] it was 0.02 nm. Moreover, the association response turned out to be 0.01 nm in [13], 0.04 nm in assay [14], 0 nm in assay [15] and 0.01 nm in assay [16].

B2: IgG1-CD134-Hu106 (antibody, from another filing, V domains shown)
VH: QVQLVQSGSELKKPGASVKVSCKASGYTFTDYSMHWVRQAPGQGLKWMGWINTETGEPTYADDFKGRFVFSLDTSVSTAYLQISSLKAEDTAVYYCANPYYDYVSYYAMDYWGQGTTVTVSS
VL: DIQMTQSPSSLSASVGDRVTITCKASQDVSTAVAWYQQKPGKAPKLLIYSASYLYTGVPSRFSGSGSGTDFTFTISSLQPEDIATYYCQQHYSTPRTFGQGTKLEIK
Regarding B2, the association response in assay [1] was 1.39 nm; in assay [2], 0.05 nm; in assay [3], 0.29 nm; in assay [4], 0.8 nm; in assay [5], 0.05 nm; in [6], -0.01 nm. In addition, the association response is 0.01 nm in assay [7]; 0 nm in [8]; 0.31 nm in assay [9]; 0.13 nm in assay [10]; 1.06 nm in assay [11]; 0.02 nm in assay [12]. The association response in assay [13] was 0.01 nm; in [14] it was 0.03 nm; in [15], -0.01 nm; in [16], 0.01 nm.

B3: IgG1-CD134-MEDI0562 (antibody, INN chains, looked up, V domains shown)
VH: QVQLQESGPGLVKPSQTLSLTCAVYGGSFSSGYWNWIRKHPGKGLEYIGYISYNGITYHNPSLKSRITINRDTSKNQYSLQLNSVTPEDTAVYYCARYKYDYDGGHAMDYWGQGTLVTVSS
VL: DIQMTQSPSSLSASVGDRVTITCRASQDISNYLNWYQQKPGKAPKLLIYYTSKLHSGVPSRFSGSGSGTDYTLTISSLQPEDFATYYCQQGSALPWTFGQGTKVEIK
modifications: IgG1
Turning to B3, the association response in assay [1] is 1.73 nm; in assay [2], 1.14 nm; in [3] it was 0.41 nm; in [4], 0.82 nm; in assay [5], 0.69 nm; in assay [6], -0.02 nm. Besides, the association response in assay [7] was 0.54 nm; in assay [8], 0 nm; in assay [9] it was 0 nm; in assay [10], 0.14 nm; in assay [11], 1.39 nm; in assay [12] it was 0 nm. Moreover, the association response was determined as 0.32 nm in assay [13], 0.01 nm in assay [14], 0.15 nm in assay [15] and 0.28 nm in assay [16].

B4: IgG1-CD134-RG7888 (antibody, INN chains, looked up, V domains shown)
VH: EVQLVQSGAEVKKPGASVKVSCKASGYTFTDSYMSWVRQAPGQGLEWIGDMYPDNGDSSYNQKFRERVTITRDTSTSTAYLELSSLRSEDTAVYYCVLAPRWYFSVWGQGTLVTVSS
VL: B3 VL with K53R, H55R, Y71F, S92H, A93T, W96P
modifications: IgG1
For the molecule B4, the association response in assay [1] was found to be 1.38 nm; in assay [2] it was 0.47 nm; in [3] it was 0.47 nm; in assay [4], 0.54 nm; in assay [5], 0.1 nm; in assay [6], 0.01 nm. The association response was determined as 0.41 nm in assay [7]; 0.02 nm in assay [8]; 0.02 nm in [9]; 0.11 nm in assay [10]; 0.66 nm in assay [11]; 0.02 nm in assay [12]. Moreover, the association response in [13] is 0.26 nm; in [14], 0.01 nm; in assay [15], 0.02 nm; in assay [16], 0.23 nm.

B5: IgG1-CD134-GBR830 (antibody, INN chains, looked up, V domains shown)
VH: QVTLKESGPALVKPTQTLTLTCSFSGFSLSTSGMGVGWIRQPPGKALEWIAHIWWDDDKYYNTALKTRLTISKDTSKNQVVLTMTNMDPVDTATYYCARIDWDGFAYWGQGTLVTVSS
VL: EIVLTQSPATLSLSPGERATLSCRASSSVSYMHWYQQKPGQAPRPWIYATSNRATGIPARFSGSGSGTDYTLTISSLEPEDFAVYYCQQWSSNPWTFGQGTKVEIK
modifications: IgG1
Consider B5, for which the association response was 1.08 nm in assay [1]; 0.07 nm in [2]; 0.28 nm in [3]; 0.84 nm in [4]; 0.02 nm in assay [5]; -0.01 nm in [6]. In addition, the association response in assay [7] was -0.02 nm; in assay [8] it was 0.01 nm; in [9], 0.33 nm; in assay [10] it was 0.13 nm; in assay [11], 0.97 nm; in [12] it was 0.61 nm. The association response stood at 0.01 nm in assay [13], 0.19 nm in assay [14], 0 nm in assay [15] and 0.02 nm in assay [16].
